Measurements from US9284543B2, “Neutral active soluble truncated PH20 polypeptides and uses thereof” (Halozyme, Inc., priority 2008, dated 2016).

B1: SPAM1-TEEP: C-terminally truncated human PH20, precursor 478 aa (SEQ ID NO:22), mature 443 aa (SEQ ID NO:74) (protein, listed as Homo sapiens)
chain 1: MGVLKFKHIFFRSFVKSSGVSQIVFTFLLIPCCLTLNFRAPPVIPNVPFLWAWNAPSEFCLGKFDEPLDMSLFSFIGSPRINATGQGVTIFYVDRLGYYPYIDSITGVTVNGGIPQKISLQDHLDKAKKDITFYMPVDNLGMAVIDWEEWRPTWARNWKPKDVYKNRSIELVQQQNVQLSLTEATEKAKQEFEKAGKDFLVETIKLGKLLRPNHLWGYYLFPDCYNHHYKKPGYNGSCFNVEIKRNDDLSWLWNESTALYPSIYLNTQQSPVAATLYVRNRVREAIRVSKIPDAKSPLPVFAYTRIVFTDQVLKFLSQDELVYTFGETVALGASGIVIWGTLSIMRSMKSCLLLDNYMETILNPYIINVTLAAKMCSQVLCQEQGVCIRKNWNSSDYLHLNPDNFAIQLEKGGKFTVRGKPTLEDLEQFSEKFYCSCYSTLSCKEKADVKDTDAVDVCIADGVCIDAFLKPPMETEEP
chain 2: LNFRAPPVIPNVPFLWAWNAPSEFCLGKFDEPLDMSLFSFIGSPRINATGQGVTIFYVDRLGYYPYIDSITGVTVNGGIPQKISLQDHLDKAKKDITFYMPVDNLGMAVIDWEEWRPTWARNWKPKDVYKNRSIELVQQQNVQLSLTEATEKAKQEFEKAGKDFLVETIKLGKLLRPNHLWGYYLFPDCYNHHYKKPGYNGSCFNVEIKRNDDLSWLWNESTALYPSIYLNTQQSPVAATLYVRNRVREAIRVSKIPDAKSPLPVFAYTRIVFTDQVLKFLSQDELVYTFGETVALGASGIVIWGTLSIMRSMKSCLLLDNYMETILNPYIINVTLAAKMCSQVLCQEQGVCIRKNWNSSDYLHLNPDNFAIQLEKGGKFTVRGKPTLEDLEQFSEKFYCSCYSTLSCKEKADVKDTDAVDVCIADGVCIDAFLKPPMETEEP
modifications: HuPH20 precursor 1-478; Mature HuPH20 36-478
B2: SPAM1-EEPQ: C-terminally truncated human PH20, precursor 479 aa (SEQ ID NO:21), mature 444 aa (SEQ ID NO:73) (protein, listed as Homo sapiens)
chain 1: MGVLKFKHIFFRSFVKSSGVSQIVFTFLLIPCCLTLNFRAPPVIPNVPFLWAWNAPSEFCLGKFDEPLDMSLFSFIGSPRINATGQGVTIFYVDRLGYYPYIDSITGVTVNGGIPQKISLQDHLDKAKKDITFYMPVDNLGMAVIDWEEWRPTWARNWKPKDVYKNRSIELVQQQNVQLSLTEATEKAKQEFEKAGKDFLVETIKLGKLLRPNHLWGYYLFPDCYNHHYKKPGYNGSCFNVEIKRNDDLSWLWNESTALYPSIYLNTQQSPVAATLYVRNRVREAIRVSKIPDAKSPLPVFAYTRIVFTDQVLKFLSQDELVYTFGETVALGASGIVIWGTLSIMRSMKSCLLLDNYMETILNPYIINVTLAAKMCSQVLCQEQGVCIRKNWNSSDYLHLNPDNFAIQLEKGGKFTVRGKPTLEDLEQFSEKFYCSCYSTLSCKEKADVKDTDAVDVCIADGVCIDAFLKPPMETEEPQ
chain 2: B2 chain 1
modifications: HuPH20 precursor 1-479; Mature HuPH20 36-479
B3: SPAM1-METE: C-terminally truncated human PH20, precursor 476 aa (SEQ ID NO:24), mature 441 aa (SEQ ID NO:76) (protein, listed as Homo sapiens)
chain 1: MGVLKFKHIFFRSFVKSSGVSQIVFTFLLIPCCLTLNFRAPPVIPNVPFLWAWNAPSEFCLGKFDEPLDMSLFSFIGSPRINATGQGVTIFYVDRLGYYPYIDSITGVTVNGGIPQKISLQDHLDKAKKDITFYMPVDNLGMAVIDWEEWRPTWARNWKPKDVYKNRSIELVQQQNVQLSLTEATEKAKQEFEKAGKDFLVETIKLGKLLRPNHLWGYYLFPDCYNHHYKKPGYNGSCFNVEIKRNDDLSWLWNESTALYPSIYLNTQQSPVAATLYVRNRVREAIRVSKIPDAKSPLPVFAYTRIVFTDQVLKFLSQDELVYTFGETVALGASGIVIWGTLSIMRSMKSCLLLDNYMETILNPYIINVTLAAKMCSQVLCQEQGVCIRKNWNSSDYLHLNPDNFAIQLEKGGKFTVRGKPTLEDLEQFSEKFYCSCYSTLSCKEKADVKDTDAVDVCIADGVCIDAFLKPPMETE
chain 2: LNFRAPPVIPNVPFLWAWNAPSEFCLGKFDEPLDMSLFSFIGSPRINATGQGVTIFYVDRLGYYPYIDSITGVTVNGGIPQKISLQDHLDKAKKDITFYMPVDNLGMAVIDWEEWRPTWARNWKPKDVYKNRSIELVQQQNVQLSLTEATEKAKQEFEKAGKDFLVETIKLGKLLRPNHLWGYYLFPDCYNHHYKKPGYNGSCFNVEIKRNDDLSWLWNESTALYPSIYLNTQQSPVAATLYVRNRVREAIRVSKIPDAKSPLPVFAYTRIVFTDQVLKFLSQDELVYTFGETVALGASGIVIWGTLSIMRSMKSCLLLDNYMETILNPYIINVTLAAKMCSQVLCQEQGVCIRKNWNSSDYLHLNPDNFAIQLEKGGKFTVRGKPTLEDLEQFSEKFYCSCYSTLSCKEKADVKDTDAVDVCIADGVCIDAFLKPPMETE
modifications: HuPH20 precursor 1-476; Mature HuPH20 36-476
B4: SPAM1-ETEE: C-terminally truncated human PH20, precursor 477 aa (SEQ ID NO:23), mature 442 aa (SEQ ID NO:75) (protein, listed as Homo sapiens)
chain 1: MGVLKFKHIFFRSFVKSSGVSQIVFTFLLIPCCLTLNFRAPPVIPNVPFLWAWNAPSEFCLGKFDEPLDMSLFSFIGSPRINATGQGVTIFYVDRLGYYPYIDSITGVTVNGGIPQKISLQDHLDKAKKDITFYMPVDNLGMAVIDWEEWRPTWARNWKPKDVYKNRSIELVQQQNVQLSLTEATEKAKQEFEKAGKDFLVETIKLGKLLRPNHLWGYYLFPDCYNHHYKKPGYNGSCFNVEIKRNDDLSWLWNESTALYPSIYLNTQQSPVAATLYVRNRVREAIRVSKIPDAKSPLPVFAYTRIVFTDQVLKFLSQDELVYTFGETVALGASGIVIWGTLSIMRSMKSCLLLDNYMETILNPYIINVTLAAKMCSQVLCQEQGVCIRKNWNSSDYLHLNPDNFAIQLEKGGKFTVRGKPTLEDLEQFSEKFYCSCYSTLSCKEKADVKDTDAVDVCIADGVCIDAFLKPPMETEE
chain 2: LNFRAPPVIPNVPFLWAWNAPSEFCLGKFDEPLDMSLFSFIGSPRINATGQGVTIFYVDRLGYYPYIDSITGVTVNGGIPQKISLQDHLDKAKKDITFYMPVDNLGMAVIDWEEWRPTWARNWKPKDVYKNRSIELVQQQNVQLSLTEATEKAKQEFEKAGKDFLVETIKLGKLLRPNHLWGYYLFPDCYNHHYKKPGYNGSCFNVEIKRNDDLSWLWNESTALYPSIYLNTQQSPVAATLYVRNRVREAIRVSKIPDAKSPLPVFAYTRIVFTDQVLKFLSQDELVYTFGETVALGASGIVIWGTLSIMRSMKSCLLLDNYMETILNPYIINVTLAAKMCSQVLCQEQGVCIRKNWNSSDYLHLNPDNFAIQLEKGGKFTVRGKPTLEDLEQFSEKFYCSCYSTLSCKEKADVKDTDAVDVCIADGVCIDAFLKPPMETEE
modifications: HuPH20 precursor 1-477; Mature HuPH20 36-477

Tested on: CHO-S cells
Assay: Western blot analysis of PH20 expression in media and cells after transient expression
Assay type: cell-based, Chinese Hamster
Settings: media versus cells
Procedure, shortened: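 PH20 expression and solubility were judged by anti-PH20 Western blot of non-reduced media and cell fractions, with expression shown by a ~66 kDa band. Samples came from CHO-S cells transiently transfected (GeneJuice) with mutant PH20-HZ24 DNA and cultured 48-72 h. GPI-anchored mutants were cleaved with PI-PLC to release soluble protein.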

Molecule	Expressed in Media
B1	YES
B2	YES
B3	YES
B4	YES

Tested on: not listed separately
Assay: Microtiter hyaluronidase activity assay with biotinylated-hyaluronic acid
Assay type: biochemical
Settings: Table 6; 72 hour post transfection supernatant; pH 5.5

pH 5.5 Activity	Molecule
1.584 Units/ml	B1
2.0745 Units/ml	B2
1.278 Units/ml	B3
2.0475 Units/ml	B4

Same assay, conditions: Table 6; 72 hour post transfection supernatant; pH 7.4

pH 7.4 Activity	Molecule
1.764 Units/ml	B1
1.917 Units/ml	B2
1.332 Units/ml	B3
2.088 Units/ml	B4
